Laboratory results reported in CN112851810A (BEIJING GUANGWEI BIOTECHNOLOGY CO LTD, dated 2021).

Target: T1, 人CD20 (human CD20) (human, UniProt P11836 1-297, limits assumed)
T1 construct: also called 人CD20蛋白; 抗原
T1 sequence (looked up): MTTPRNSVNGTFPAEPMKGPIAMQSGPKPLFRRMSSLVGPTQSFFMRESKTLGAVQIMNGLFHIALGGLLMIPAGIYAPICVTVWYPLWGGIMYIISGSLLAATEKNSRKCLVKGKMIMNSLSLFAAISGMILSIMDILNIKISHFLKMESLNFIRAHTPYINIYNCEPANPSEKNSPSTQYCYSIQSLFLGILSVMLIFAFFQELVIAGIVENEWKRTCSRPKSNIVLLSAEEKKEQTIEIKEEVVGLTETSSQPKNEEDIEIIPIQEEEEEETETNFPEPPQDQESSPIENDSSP
Experiment: SPR (CM5 chip, antibody captured by anti-human capture antibody, antigen as analyte from 10 nM)

B1: h12H7-IgG1 (antibody, V domains shown)
VH: QVQLVQSGAEVKKPGASVKVSCKASDYTFTSYAGKWVRQAPGQGLEWIGAIPTKGNDTSYNQFLKGRVTMTADTSTSTVYMELSSLRSEDTAVYYCAKGIDGCNFDYWGQGTTVTVSS
VL: DIQMTQSPSSVSASVGDRVTITCKASQRVATGVAWYQQKPGKAPKALIYSAIGNRTGVPSRFSGSGSGTDFTLTISSLQPEDFATYYCQQASKIDAYPTFGQGTKLEIK
In the case of B1, the Kd is reported as 0.307 nM, the koff is reported as 4.21e-05 s⁻¹ and the kon is reported as 137000 M⁻¹ s⁻¹.

B2: Rituximab (antibody, V domains shown)
VH: QVQLQQPGAELVKPGASVKMSCKASGYTFTSYNMHWVKQTPGRGLEWIGAIYPGNGDTSYNQKFKGKATLTADKSSSTAYMQLSSLTSEDSAVYYCARSTYYGGDWYFNVWGAGTTVTVSA
VL: QIVLSQSPAILSASPGEKVTMTCRASSSVSYIHWFQQKPGSSPKPWIYATSNLASGVPVRFSGSGSGTSYSLTISRVEAEDAATYYCQQWTSNPPTFGGGTKLEIK
For B2, the Kd was 5.46 nM, the koff was 0.000345 s⁻¹ and the kon was 63100 M⁻¹ s⁻¹.
